Measured values as given in paper PMC11452378 (Scientific Reports, 2024).
Values belong to the molecule of their own block, whether it stands above or below them.

Columns and labels:
[1] = molecular target: extracellular fragment of FcγRIIIa (158V); assay: BLI; biotinylated FcγR immobilized on Streptavidin (SA) biosensors (Octet Red384); antibodies in solution as serial dilutions; PBS pH 7.4 0.1% BSA 0.1% Tween-20; at least triplicate
[2] = molecular target: extracellular fragment of FcγRIIIa (158F) (UniProt P08637); assay: as above
[3] = molecular target: extracellular fragment of FcγRIIa (131H) (UniProt P12318); assay: as above
[4] = molecular target: extracellular fragment of FcγRIa (UniProt P12314); assay: as above
[5] = molecular target: extracellular fragment of FcγRIIa (131R); assay: as above
[6] = molecular target: extracellular fragment of FcγRIIb (UniProt P31994); assay: as above
[7] = molecular target: extracellular fragment of FcRn (UniProt P55899); assay: BLI; biotinylated FcRn immobilized on Streptavidin (SA) biosensors (Octet Red384); antibodies in solution, 345 to 5.39 nM; PBS-HCl pH 6.0 0.1% Tween-20; at least triplicate
[8] = molecular target: T1, extracellular domain of PD-1 receptor (R&D Systems) (Homo sapiens, UniProt Q15116); assay: SPR; PD-1 extracellular domain immobilized on a Planar Polyethylene Glycol/Carboxyl Sensor Chip (Reichert4SPR); antibodies in solution, 10; 3.33; 1.11; 0.37; 0.12 nM in PBS 0.02% Tween-20 pH 7.4; multi-step kinetics; triplicate; details: both partners purified
T1 construct: Programmed cell death protein 1 (PD-1), extracellular domain; also called Programmed cell death protein 1; source: bought: R&D Systems
T1 sequence (Q15116 25-170): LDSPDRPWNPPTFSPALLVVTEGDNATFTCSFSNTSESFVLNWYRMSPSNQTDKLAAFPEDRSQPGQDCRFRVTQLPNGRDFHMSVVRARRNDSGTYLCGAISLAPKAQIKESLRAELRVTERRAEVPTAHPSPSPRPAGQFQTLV

Sequence of extracellular fragment of FcRn (P55899 24-297): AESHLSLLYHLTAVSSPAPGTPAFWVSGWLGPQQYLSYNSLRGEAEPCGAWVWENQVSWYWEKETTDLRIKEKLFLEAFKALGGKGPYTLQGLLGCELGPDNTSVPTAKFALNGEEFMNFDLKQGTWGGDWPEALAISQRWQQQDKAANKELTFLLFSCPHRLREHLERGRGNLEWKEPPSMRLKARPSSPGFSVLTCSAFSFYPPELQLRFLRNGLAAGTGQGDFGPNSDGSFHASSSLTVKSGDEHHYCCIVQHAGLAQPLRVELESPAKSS
Sequence of extracellular fragment of FcγRIa (P12314 16-292): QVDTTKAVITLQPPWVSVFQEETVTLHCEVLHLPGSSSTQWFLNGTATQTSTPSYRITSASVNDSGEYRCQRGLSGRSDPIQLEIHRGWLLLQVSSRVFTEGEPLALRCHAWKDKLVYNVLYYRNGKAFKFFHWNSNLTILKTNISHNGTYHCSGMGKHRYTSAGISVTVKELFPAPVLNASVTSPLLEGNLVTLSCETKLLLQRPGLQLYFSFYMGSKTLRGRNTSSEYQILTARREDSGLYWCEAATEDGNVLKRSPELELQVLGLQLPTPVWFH
Sequence of extracellular fragment of FcγRIIIa (158F) (P08637 17-208): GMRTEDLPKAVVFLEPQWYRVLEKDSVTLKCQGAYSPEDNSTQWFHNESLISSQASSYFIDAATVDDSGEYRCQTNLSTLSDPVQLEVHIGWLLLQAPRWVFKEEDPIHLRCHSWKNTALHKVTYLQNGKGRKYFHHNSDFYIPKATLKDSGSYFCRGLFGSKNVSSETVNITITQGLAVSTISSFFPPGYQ
Sequence of extracellular fragment of FcγRIIa (131H) (P12318 34-217): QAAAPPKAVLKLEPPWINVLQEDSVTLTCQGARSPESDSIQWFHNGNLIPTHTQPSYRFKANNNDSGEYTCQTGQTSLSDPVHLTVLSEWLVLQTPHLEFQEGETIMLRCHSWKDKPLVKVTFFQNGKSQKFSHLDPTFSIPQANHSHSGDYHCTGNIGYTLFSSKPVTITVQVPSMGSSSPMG
Sequence of extracellular fragment of FcγRIIb (P31994 43-217): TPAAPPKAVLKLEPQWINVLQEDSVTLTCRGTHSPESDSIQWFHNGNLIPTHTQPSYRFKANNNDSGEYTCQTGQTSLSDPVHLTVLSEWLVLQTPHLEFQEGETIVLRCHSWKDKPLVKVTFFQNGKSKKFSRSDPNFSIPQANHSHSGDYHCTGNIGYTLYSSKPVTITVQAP

Molecule: Nivolumab (antibody)
Kd [1]: 8.97 µM
Kd [2]: 16.6 µM
Kd [3]: 13.1 µM
Kd [4]: 0.074 µM
Kd [5]: 2 µM
Kd [6]: 0.93 µM
Kd [7]: 0.0248 µM

B2: Pembrolizumab (antibody, V domains shown)
VH: QVQLVQSGVEVKKPGASVKVSCKASGYTFTNYYMYWVRQAPGQGLEWMGGINPSNGGTNFNEKFKNRVTLTTDSSTTTAYMELKSLQFDDTAVYYCARRDYRFDMGFDYWGQGTTVTVSS
VL: EIVLTQSPATLSLSPGERATLSCRASKGVSTSGYSYLHWYQQKPGQAPRLLIYLASYLESGVPARFSGSGSGTDFTLTISSLEPEDFAVYYCQHSRDLPLTFGGGTKVEIK
notes: variable domain of the pembrolizumab heavy chain; constant region of the IgG4 heavy chain; light chain of pembrolizumab; IgG4; Whole therapeutic antibody in all assays; also called anti-PD-1 antibody; IgG4
Kd [2]: 19.9 µM
Kd [3]: 11.1 µM
Kd [4]: 0.085 µM
Kd [6]: 8.64 µM
Kd [8]: 4.7 pM
Kd [7]: 0.025 µM

More lines, now with the values ahead:

Kd [1]: 5.24 µM
Kd [5]: 5.17 µM
Molecule: Pembrolizumab (antibody)

Kd [1]: 1.33 µM
Kd [2]: 12.7 µM
Kd [3]: 14.6 µM
Kd [4]: 0.9 µM
Kd [5]: 9.66 µM
Kd [6]: 21 µM
Kd [7]: 0.0153 µM
B1: Prolgolimab (antibody, V domains shown)
VH: QVQLVQSGGGLVQPGGSLRLSCAASGFTFSSYWMYWVRQVPGKGLEWVSAIDTGGGRTYYADSVKGRFAISRVNAKNTMYLQMNSLRAEDTAVYYCARDEGGGTGWGVLKDWPYGLDAWGQGTLVTVSS
VL: QPVLTQPLSVSVALGQTARITCGGNNIGSKNVHWYQQKPGQAPVLVIYRDSNRPSGIPERFSGSNSGNTATLTISRAQAGDEADYYCQVWDSSTAVFGTGTKLTVL
